According to the supplement of paper PMC10201428:
± gives the standard deviation of the averaged measurements.

What was measured:
[1] = tested on: VchCAST RNA-guided transposition machinery (E. coli BL21(DE3) host, lacZ target); test: relative integration efficiency (T-RL orientation) vs wild-type transposon end (log2 (normalized fold change)); transposon end mutated: right end (5 bp flank + 75 bp right end); higher = more efficient transposition
Procedure, shortened: (§1)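 Barcode abundances in input plasmids and in genomic integration junctions were obtained by PCR amplification and Illumina sequencing. These came from E. coli BL21(DE3) co-transformed with a T7-driven effector plasmid and a pUC57 donor carrying 1549 left-end or 1849 right-end transposon variants, then plated with 0.1 mM IPTG at 37°C for 18 h. Relative integration efficiency is the output/input fold change, normalised to reference barcodes and log-transformed.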

[2] = tested on: VchCAST RNA-guided transposition machinery (E. coli BL21(DE3) host, lacZ target); test: relative integration efficiency (T-LR orientation) vs wild-type transposon end (log2 (normalized fold change)); transposon end mutated: right end (5 bp flank + 75 bp right end); higher = more efficient transposition
Procedure, shortened: as §1

Sequence | relative integration efficiency (log2) [1] | relative integration efficiency (log2) [2]
ACATTTGTTGATACAACCATAAAATGATAATTACAACCATATATTGATATCTCTCACAACCATATATTGATATCTCCTCTGATCATAGTCAGACCAACATTGCTACGACCCGTATTCGCACCGACAC | -0.574 ± 0.17 | 0.0166 ± 0.61
ACATTTGTTGATACAACCATAAAATGATAATTACAACCATATATTGATATCTCTCACACCCATAAATTGATAATTACTCTGATCATAGTCAGACCAACATTGCTACGACCCGTATTCGCACCGACAC | -0.651 ± 0.2 | -0.0249 ± 0.15
ACATTTGTTGATACAACCATAAAATGATAATTACAACCATATATTGATATCTCTCACACCCATAAATTGATATTGCCTCTGATCATAGTCAGACCAACATTGCTACGACCCGTATTCGCACCGACAC | -0.424 ± 0.15 | 0.0992 ± 0.38
ACATTTGTTGATACAACCATAAAATGATAATTACAACCATATATTGATATCTCTCAGTGGGTATTTAACTATAACGCTCTGATCATAGTCAGACCAACATTGCTACGACCCGTATTCGCACCGACAC | -0.933 ± 0.28 | 3.01 ± 0.18
ACATTTGTTGATACAACCATAAAATGATAATTACACAAATAAATTGATAATTATCACACCCATAAATTGATATTGCCTCTGATCATAGTCAGACCAACATTGCTACGACCCGTATTCGCACCGACAC | -0.996 ± 0.19 | -1.82 ± 0.23
ACATTTGTTGATACAACCATAAAATGATAATTACACAACGAAATTGATAATTATCACACCCATAAATTGATATTGCCTCTGATCATAGTCAGACCAACATTGCTACGACCCGTATTCGCACCGACAC | -3.5 ± 0.2 | -3.53 ± 0.42
ACATTTGTTGATACAACCATAAAATGATAATTACACAACGCCCGGTCGCCGGCGACACAAACGCCCGGTCGCGGTAAGAGGATCATAGTCAGACCAACATTGCTACGACCCGTATTCGCACCGACAC | -2.42 ± 0.23 | 0.604 ± 0.2
ACATTTGTTGATACAACCATAAAATGATAATTACACCACGCAATTGATAATTATCACACCCATAAATTGATATTGCCTCTGATCATAGTCAGACCAACATTGCTACGACCCGTATTCGCACCGACAC | -3.04 ± 0.044 | -2.53 ± 0.18
ACATTTGTTGATACAACCATAAAATGATAATTACACCACGCCCGGTCGCCGGCGACACAAACGCCCGGTCGCGGTAAGAGGATCATAGTCAGACCAACATTGCTACGACCCGTATTCGCACCGACAC | -2.31 ± 0.082 | 0.799 ± 0.081
ACATTTGTTGATACAACCATAAAATGATAATTACACCACTAAATTGATAATTATCACACCCATAAATTGATATTGCCTCTGATCATAGTCAGACCAACATTGCTACGACCCGTATTCGCACCGACAC | -1.78 ± 0.12 | -2.09 ± 0.036
ACATTTGTTGATACAACCATAAAATGATAATTACACCCAATAATTGATAATTATCACACCCATAAATTGATATTGCCTCTGATCATAGTCAGACCAACATTGCTACGACCCGTATTCGCACCGACAC | -0.277 ± 0.02 | -0.381 ± 0.18
ACATTTGTTGATACAACCATAAAATGATAATTACACCCAATTTTTGATAATTATCACACCCATAAATTGATATTGCCTCTGATCATAGTCAGACCAACATTGCTACGACCCGTATTCGCACCGACAC | -0.529 ± 0.16 | -0.688 ± 0.35
ACATTTGTTGATACAACCATAAAATGATAATTACACCCAGCAATTGATAATTATCACACCCATAAATTGATATTGCCTCTGATCATAGTCAGACCAACATTGCTACGACCCGTATTCGCACCGACAC | -2.18 ± 0.085 | -2.55 ± 0.22
ACATTTGTTGATACAACCATAAAATGATAATTACACCCAGCCCGGTCGCCGGCGACACAAACGCCCGGTCGCGGTAAGAGGATCATAGTCAGACCAACATTGCTACGACCCGTATTCGCACCGACAC | -1.97 ± 0.16 | 1.03 ± 0.08
ACATTTGTTGATACAACCATAAAATGATAATTACACCCAGCCCTTGATAATTATCACACCCATAAATTGATATTGCCTCTGATCATAGTCAGACCAACATTGCTACGACCCGTATTCGCACCGACAC | -1.99 ± 0.04 | -2.1 ± 0.29
ACATTTGTTGATACAACCATAAAATGATAATTACACCCATAAAAACTTAATTATCACACCCATAAATTGATATTGCCTCTGATCATAGTCAGACCAACATTGCTACGACCCGTATTCGCACCGACAC | -0.679 ± 0.12 | -0.52 ± 0.069
ACATTTGTTGATACAACCATAAAATGATAATTACACCCATAAAAAGATAATTATCACACCCATAAATTGATATTGCCTCTGATCATAGTCAGACCAACATTGCTACGACCCGTATTCGCACCGACAC | -0.162 ± 0.011 | -1.08 ± 0.96
ACATTTGTTGATACAACCATAAAATGATAATTACACCCATAAAGGGATAATTATCACACCCATAAATTGATATTGCCTCTGATCATAGTCAGACCAACATTGCTACGACCCGTATTCGCACCGACAC | -0.447 ± 0.064 | -0.969 ± 0.58
